Data as given in patent US20200171068A1, “COMPOSITIONS COMPRISING APTAMERS AND NUCLEIC ACID PAYLOADS AND METHODS OF USING THE SAME” (Children's National Medical Center, priority 2017, published 2020).
“Also recorded” adds a separate entry of the source.

B1: miR-26a chimera: mouse c-Kit DNA aptamer-C3-passenger RNA, passenger RNA-TEG-cholesterol and miR-26a-5p guide strand annealed (SEQ ID NO:6/7, 8, 9) (nucleic acid)
chain 1: GCTCAACGCGGGACGGCTCTCCCATTGAC
chain 2: CCUAUUCUGG
chain 3: GUUACUUGCACG
guide: UUCAAGUAAUCCAGGAUAGGCU
modifications: chemistry not fully specified

What was measured:
TUBO cells = assay: Growth and apoptosis of TUBO cells in vitro; format: cell-based, mouse; conditions: for percentage of apoptotic TUBO cells (Annexin V+): single agent
Procedure: FIG. 4A-FIG. 4J show how miR-26a chimera inhibits mouse breast cancer growth and protects from chemo-induced myelosuppression. FIG. 4A is a graph showing the binding of c-Kit-aptamer to TUBO cells. […] Cell count (left) and Annexin V^+ cells (%) (right) of the cells cultured with miR-26a chimera or the control (ctrl) were determined by flow cytometry. Asterisks denote the significant difference between ctrl chimera versus miR-26a chimera, and between ctrl chimera+5-FU versus miR-26a chimera+5FU. Data (mean±s.d.) were pooled from two experiments. FIG. 4C is a graph showing miR-26a expression in c-Kit^+ or c-Kit cells harvested from TUBO-derived tumors in BALB/c mice treated with miR-26a chimera (670 pmol/20 g) for 3 days. Data (mean+s.d.) were pooled from two experiments, involving a total of 6 mice per group. FIG. 4D is a graph showing Ezh2 expression in c-Kit^+ or c-Kit− cells harvested from TUBO-derived tumors in BALB/c mice treated with miR-26a chimera (670 pmol/20 g) for 3 days. Data (mean+s.d.) were pooled from two experiments, involving a total of 6 mice per group. FIG. 4E is a graph showing Bak1 expression in c-Kit^+ or c-Kit-cells harvested from TUBO-derived tumors in BALB/c mice treated with miR-26a chimera (670 pmol/20 g) for 3 days. Data (mean+s.d.) were pooled from two experiments, involving a total of 6 mice per group. FIG. 4F is a graph showing miR-26a expression in bone marrow (BM) detected by qPCR at 3 days after intravenous injection with the miR-26a chimera (670 pmol/20 g). Data (mean+s.d.) were pooled from two experiments, involving a total of 6 mice per group. FIG. 4G is a graph showing Bak expression in bone marrow (BM) detected by qPCR at 3 days after intravenous injection with the miR-26a chimera (670 pmol/20 g). Data (mean+s.d.) were pooled from two experiments, involving a total of 6 mice per group. FIG. 4H is a graph showing tumor volume over time. BALB/c mice bearing TUBO cells were treated with miR-26a chimera (670 pmol/20 g) (5 times, gray arrows) and 50 mg/kg 5-FU (3 times, dark grey arrows). Data (mean+s.d.) were pooled from two experiments, involving a total of 6 mice per group. There was significant difference between 5-FU only group versus miR-26a chimera only group (two way repeated-measures ANOVA followed by Bonferroni post-test for day0 to day18 (interaction p-value<0.001). FIG. 4I is a graph showing tumor volume over time after combinational treatment with 5-FU and chimeras. Data (mean+s.d.) were pooled from two experiments, involving a total of 6 mice per group. There was significant difference between 5-FU+ctrl chimera group versus 5-FU+miR-26a chimera group (two way repeated-measures ANOVA followed by Bonferroni post-test for day0 to day21, interaction p-value<0.0001). FIG. 4J is a graph showing the numbers of WBC and PLT in the tumor bearing mice 5 days after 5-FU treatment. Data (mean+s.d.) pooled from two experiments, involving a total of 6 mice per group. *P<0.05, **P<0.01.
A mouse TUBO breast cancer model was used to evaluate the therapeutic potential of miR-26a chimera for the myeloprotection and anti-tumor growth in breast cancer chemotherapy. Binding ability of an aptamer targeting mouse c-Kit to the TUBO cells was first tested by flow cytometry. […] To determine whether the mouse c-Kit-miR-26a chimera can inhibit the growth of mouse breast cancer cells in vitro, the TUBO cells were treated with increasing doses of miR-26a- or control-chimeras, and the viable cells counted under microscope at 2 days after the treatment.

TUBO-derived tumors = assay: Syngeneic TUBO breast tumor model in BALB/c mice; format: in vivo, mouse; conditions: for tumor size / growth, monotherapy: chimera 670 pmol/20 g 5 daily injections, 5-FU 50 mg/kg 3 times
Procedure: BALB/c mice bearing TUBO tumors were treated intravenously with miR-26a chimera (670 pmol/20 g) daily for 5 days. At days 2, 3, and 4, 50 mg/kg 5-FU was intravenously injected. Peripheral blood was collected 5 and 10 days after the initial 5-FU treatment. FIG. 9A is a series of graphs showing the numbers of WBC, RBC, and PLT 5 days after 5-FU treatment. FIG. 9B is a series of graphs showing the numbers of WBC, RBC, and PLT 10 days after 5-FU treatment. Data (mean+s.d.) were pooled from two experiments, involving a total of 6 mice per group. *, P<0.05, **, P<0.01. Xenograft model were generated 8-weeks old female immune-deficient NOD-scid IL2Rgamma^null (NSG™, Jackson Laboratories, Bar Harbar, Me., USA) using human breast cancer cell line. Syngeneic TUBO tumors were established in 8-weeks old female BALB/c mice (from Charles River Animal Facility, Frederick, Md., USA). These tumor-bearing mice were randomly assigned to each treatment group. Eight-week old male C57BL/6 mice and C57BL/6 ly5.2 mice (from Charles River Animal Facility, Frederick, Md., USA) were used for bone marrow transplantation assay. The mouse groups assigned for each treatment were not blinded. No statistical methods were used to pre-determined sample size for the analysis of mouse experiments. All the mice were maintained in the Research Animal Facility at Children's National Institute, Children's National Medical Center. The committee on the Use and Care of Animal at Children's National Institute approved all procedures involving experimental animals. For xenograft models, the NSG mice and BALB/c mice were subcutaneously injected with 2×10^6 viable MDA-MB-231 cells and TUBO cells in their right hind limbs, respectively. After the tumor grew to 1 cm in diameter, mice were randomly divided into the groups for each treatment. For no treatment control, 100 μl saline with 1% mouse serum was intravenously injected through tail vein. […] Tumor sizes were measured in two dimensions every 3 days. Tumor volume (V) was calculated using the following formula: V=(½) S^2×L (S. the shortest dimension; L, the longest dimension). […] For chimera treatment in normal mice, C57BL/6 mice were treated with miR-26a chimera (670 pmol/20 g) everyday for 3 days by intravenous injection. […] Peripheral bloods were collected at day 5 and day 10 after the 5-FU treatment. Complete blood counts were measured by Hemavet 950FS (Drew Scientific, Miami Lakes, Fla., USA).

Row | Molecule | reduction in tumor cell number (TUBO cells; TUBO cells, 7 μM of 5-FU alone) | percentage of apoptotic TUBO cells (Annexin V+) (TUBO cells) | leukocytes and thrombocytes after 5-FU (TUBO-derived tumors; TUBO-tumor bearing mice, 5-FU 50 mg/kg x3) | tumor size / growth, monotherapy (TUBO-derived tumors) | tumor cell number / effects, chimera in combination with 5-FU (TUBO cells; TUBO cells, 5-FU 1 μg/ml (7 μM) plus chimera) | IC50 (TUBO cells; TUBO cells, viable cells counted 2 days after treatment, chimera alone, read-out: IC50, reduction in tumor cell number) [nM] | TUBO cell growth (cell count) (TUBO cells; chimera alone, increasing doses) | percentage of apoptotic TUBO cells, chimera in combination with 5-FU (TUBO cells; combination) | tumor growth, 5-FU combined with chimera (TUBO-derived tumors; 5-FU plus miR-26a chimera) | number of leukocytes (WBC) and thrombocytes (PLT), combination with 5-FU (TUBO-derived tumors; TUBO-tumor bearing mice, 5 days after 5-FU) | 5-FU-induced leukopenia / myelosuppression in tumor-bearing mice (TUBO-derived tumors; chimera daily for 5 days, 5-FU at days 2, 3, 4)
1 | O=c1[nH]cc(F)c(=O)[nH]1 [5-FU, 5-fluorouracil, reference compound] | less than 20% | increased | significant leukopenia and thrombocytopenia | growth retardation |  |  |  |  |  |  | 
2 | B1 |  | induced apoptosis; also recorded: increased |  | significant decrease of tumor size; also recorded: more effective than 5-FU treatment | enhanced these effects; also recorded: synergistically reduced tumor cells | ~83 | suppressed the growth; also recorded: dose-dependent reduction | increased | most effective growth retardation | nearly doubled | ameliorates 5-FU induced myelosuppression; also recorded: largely prevented leukopenia
